Experiment [1] concerns the target T1, Recombinant DENV-2 sE (1-396) from strain 16681-PDK53 with C-terminal AviTag and poly-histidine tags (Dengue virus serotype 2 strain …, UniProt P29991 281-676, biotinylated on the AviTag for BLI).
T1 construct: Produced in Expi293F cells; biotinylated for BLI; also called DENV-2 E
Kind of experiment: BLI and ELISA on DENV-2 E glycoprotein. On the technique in general: In an ELISA, binding on a coated surface is turned into a signal by an enzyme label.

The target of experiment [2] is T1, Recombinant DENV-2 sE (1-396) from …. Kind of experiment: ELISA on DENV-2 E.
The target in the next experiment is DENV-2 (S16803) virus (Dengue virus serotype 2 strain S16803). In words: cell-based or functional assay.
Experiment [3] addresses Whole purified ZIKV (ZIKV/Brazil/2015) virions (Zika virus, ZIKV/Brazil/2015). Kind of experiment: cell-based or functional assay.
Experiment [4] has as its target ZIKV PR (Puerto Rican strain, PRVABC59) virus (Zika virus strain PRVABC59). In words: cell-based or functional assay.
In experiment [5] the target is ZIKV H/PF/2013 reporter virus particle with E mutant (D67N, A69T) (Zika virus strain H/PF/2013). Kind of experiment: cell-based or functional assay.

B1: rhMZ123-A (antibody, V domains shown)
VH: QLVQSGAEVKRPGESLRISCKTSGYSFTSYWISWVRQMPGKGLEWMGMIYPGDSDTRYSPSFQGQVTISADKSISTAYLQWSSLKASDTATYYCAKVDSSGWTNYFDYWGQGVLVTVSS
VL: QSALTQPPSVSKSLGQSVTISCTGTSSDIGGYNGVSWYQQHSGTAPRLLIYDVSKRPSGVSDRFSGSKSGNTASLTISGLQAEDEADYYCCSYRSGSTYIFGAGTRLTVLG
B1: the binding result in experiment [1] is on record as “no binding”.

B2: MZ4 (antibody, V domains shown)
VH: QVHLQESGPGLVRPSETLSLTCTVSDGSISSYYWSWIRQPPGKGLEWIGSIYYTGSTNYNPSLKSRVTMSVDTSKNQFSLRLNSVTAADTAMYYCAGLDRYSWNEGGDHWGQGILVSVSS
VL: QPVLTQPPSASGTPGQRVSISCSGSRSNLGKNTVNWYQQLPGTAPKLLIYNHSRRPSGVPERFSGSKSGTSASLAISGLQSEDEADYFCAAWDDSLNGLYVFGTGTKVTVLR
notes: also called MHRP ZIKV-1004
Take B2: the binding result in experiment [2] was “binds”. Further, the “flow-based neutralization assay using human monocytes (FlowNT), IC50” value with DENV-2 (S16803) virus worked out at 0.0209 µg/mL; in experiment [3], 0.0083 µg/mL.

B3: MZ1 (antibody, V domains shown)
VH: QVQLQESGPGLVKSSETLSLSCTVSGASISNFYWSWVRQPPGKGLEWMGSIYYTGTITYNPSLKSRLTMSVDTSKNQFSLKLNSVTAADTAVYSCAGLDRFNWNDEGDCWGQGTLVTVFS
VL: QSVLTQPPSASGTPGQRVTISCSGSRSNLGRNTVNWYQQLPGVAPKLLIYSNNRRPSGVPDRFSGSKSDTSASLAISGLQSEDEADYFCAAWDDSLNGLYVFGTGTKVTVLG
Consider B3, for which the binding result in experiment [2] is recorded as “binds”.

B4: rhMZ134-B (antibody, V domains shown)
VH: EVQLVESGGGLAKPGGSLRLSCAASGFTFSDYYMDWVRQAPGKGLEWVSRISNGGGSTWYADSVKGRFTISRENAKNTLYLQMNSLRAEDTAVYYCARGPEYCSSTYCSSAYCTGSGCYVDYGLDSWGQGVVVTVSS
VL: SYELTQPPSVSVSPGQMARITCGGDNIGSKNVQWYQQKPAQAPVLVIYADSERPSGIPERFSGSNSGNTATLTISGVEAGDEADYYCQVWDSSSDHVLFGGGTRLTVLG
In the case of B4, the “micro-neutralization (MN50) in Vero cells, IC50” value in experiment [4] turned out to be 0.0038 µg/mL. Further, the “neutralization in the reporter virus particle (RVP) assay, mutant against wild-type ZIKV H/PF/2013” value in experiment [5] stood at 10 fold. Moreover, the “FlowNT50 neutralization, U937-DC-SIGN cells, IC50” value in experiment [3] was determined as 0.022 µg/mL. Besides, the binding result in experiment [1] is listed as “no binding”.

B5: rhMZ121-A (antibody, V domains shown)
VH: QVQLQESGPGLVKPSETLSLTCAVSGYSISSGYYWGWIRQPPGKGLEYIGYISGSSGSTYYNPSLKSRVTISKDTSKNQFSLKLSSVTAADTAVYYCARGNYYSGSYYLFWGQGVLVTVSS
VL: SYELTQPPSVSVSPGQTARITCGGDNLGSKYVHWYQQKPAQAPVLVIYYDSDRPSGIPERFSGSKSGNTATLTISGVEAGDEADYYCQVWDSSSDHWVFGGGTRLTVLG
For the molecule B5, the binding result in experiment [1] is on record as “no binding”.

B6: rhMZ124-D (antibody, V domains shown)
VH: QVQLQESGPGLVKPSETLSLTCAVSGDSISSGYYWGWIRQSPGRGLESFGFISGSGGTTYYNPSLKTRVTISKDTSKNQFSLKLSSVTAADTAVYYCARLGHPRGIAAGGVDYWGQGVLVTVSS
VL: QSALTQPPSLSASPGASARLPCTLSSDFSVGNKNMYWYQQKPGSAPGLFLYFYSDSDNQLGPGVPNRVSGSKEASSNTAFLLISGLQPEDEADYYCQVYDRAANILFGGGTRLTVLG
Consider B6, for which the binding result in experiment [1] is recorded as “no binding”.

B7: rhMZ103-A (antibody, V domains shown)
VH: QVQLQESGPGLVKPSETLSLTCAVSGGSISGGYDWSWIRQPPGKGLEWIGYIYGSSGSTNYNPSLKNRVTISKDTSKNQFSLKLSSVTAADTAVYYCARPAYYEDDYGYYYTTPIFDYWGQGVLVTVSS
VL: QSVLTQPPSASGAPGQSVTISCSGSSSNIGSNYVYWYQQLPGTAPKLLIYYSNQRPSGVPDRFSGSKSGTSASLAITGLRSEDEADYYCAAWDNSLSSVLFGGGTRLTVLG
Consider B7, for which the “neutralization in the reporter virus particle (RVP) assay, mutant against wild-type ZIKV H/PF/2013” value in experiment [5] is 5 fold. In experiment [3], the “FlowNT50 neutralization, IC50” value fell in the range of 1 to 3 µg/mL. The binding result in experiment [1] was “no binding”.

B8: MZ56 (antibody, V domains shown)
VH: EVQLVESGGDLVQPGGSLRLSCAASGFTFSNYAMHWVRQAPGKGLESVSAIGSNGDSIFYASSVKGRFTISRDNSKNTLYLQMGSLRADDMAVYFCARGWYYYDSRAYWYFDLWGRGTLVTVSS
VL: QPVLTQPASVSGSPGQSITISCTGTTSDVDDYNHVSWYQQYPGKAPRVMLYDVTKRPSGVPDRFSGSKSGNTASLTISGLQSEDEADYYCCSFADSHAIFGGGTKVTVLG
On to B8, for which the binding result in experiment [2] is “binds”.

B9: rhMZ100-C (antibody, V domains shown)
VH: EVQLVESGGGLVQPGGSLRLSCAASGFTFSSDGMSWVRQAPGKGLEWVSYISSGGATTYYADSVKGRFTISRDNSKNTLSLQMNSLRGEDTAVYYCAKDITAPGRNGLDSWGQGVVVTVSS
VL: QSVLTQPPSLSASPGASARLPCTLSSDLNVGTKNMYWYQQKPGSAPRLFLYYYSDSDKQLGPGVPNRVSGSKETSSNTAFLLISGLQPEDEADYYCQVYDNSARVFGGGTRLTVLG
On to B9, for which, in experiment [3], the “FlowNT50 neutralization, IC50” value fell in the range of 1 to 3 µg/mL. For the same molecule, the binding result in experiment [1] was “no binding”.

B10: rhMZ133-C (antibody, V domains shown)
VH: EVQLVESGGGLVQPGGSLRLSCAASGFTFSDYYMSWVRQAPGKGPEWVGFIRNKANGGTAEYAASVKGRFTVSRDDSKSIASLQMNSLKTEDTAVYYCAKHYCTGSGCYGAGLDSWGQGVVVTVSS
VL: QSVLTQPPSVSKSLGQSVTISCTGTSSDIGGSNDVSWYQQHPGTAPRLLIYNVSKRPSGVSDRFSGSKSGNTASLTISGLQAEDEADYYCCSYRSGSTLFGGGTRLTVLG
Regarding B10, the “neutralization in the reporter virus particle (RVP) assay, mutant against wild-type ZIKV H/PF/2013” value in experiment [5] worked out at 2 fold. The binding result in experiment [1] is listed as “no binding”.

B11: rhMZ119-D (antibody, V domains shown)
VH: EVQLVQSGAEVKRPGESLKISCKTSGYSFTSYWISWVRQMPGKGLEWMGAIDPSDSDTRYSPSFQGQVTISADKSISTAYLQWSSLKASDSATYYCAKEGIAARSLDVWGRGVLVTVSS
VL: SYELTQPPSVSVSPGQTARITCSGDALPKKYAYWFQQKPGQSPVLIIYEDSKRPSGIPERFSGSSSGTVATLTISGAQVEDEADYYCYSTDSSGYHGLFGGGTRLTVLG
Turning to B11, in experiment [3], the “FlowNT50 neutralization, U937-DC-SIGN cells, IC50” value stood at 0.031 µg/mL. In addition, in experiment [1], the binding result is listed as “no binding”.

B12: MZ54 (antibody, V domains shown)
VH: EVQLVESGGGLVKPGGSLRLSCSASGFNFRDFYMGWVRQAPGKGLQWVSHIGDSGGAIYYTDSVEGRFSISRDNAKNSLYLQMNSLRVEDTAIYYCVCAGGGRTDYWGQGTLVTVSS
VL: DIVMTQSPSSLSASVGDRVTITCQATQDINIYLNWYQQKPGQAPKLLIYDASRLETGVPSRFSGRGSGTDFTFTISSLQPEDFGTYYCQHYYTVPRTFGQGTKVESRR
B12: the binding result in experiment [2] is “binds”.

B13: MZ20 (antibody, V domains shown)
VH: EVQVVESGGGLVKPGGSLRLSCAASGFTFSHFYMTWIRQAPGKGLESISYIGGTGSPTYYADSVVGRFTISRDNAKNSVYLEMNSLRAEDTAIYYCVRAGGARIENWGQGTLVIVSS
VL: DIVMTQSPSSLSASVGDRVTITCQASHDINIYLNWYQQRPGKAPKLLIYDASRLETGVPSRFSGTGSGTDFTFTISNLQPEDFATYFCQHYYTLPRTFGQGTKVDIKR
Take B13: the binding result in experiment [2] is listed as “binds”.

B14: rhMZ107-B (antibody, V domains shown)
VH: QVQLQESGPGLVKPSETLSLTCAVSGYSISSGYYWGWIRQPPGKGLEYIGYISGSSGSTYYNPSLKSRVTISKDTSKNQFSLKLSSVTAADTAVYYCARRDRVGSYPYYYGLDSWGQGVLVTVSS
VL: QSVLTQPPSLSASPGASARLPCTLSSDLSVGSKNMYWYQQKPGSAPRLFLYYYSDSDKQLGPGVPNRVSGSKETSSNTAFLLISGLQPEDEADYYCQVYDGSANDVFGSGTKLTVLG
B14: the “FlowNT50 neutralization, IC50” value in experiment [3] was in the range of 1 to 3 µg/mL. The binding result in experiment [1] is “no binding”.

B15: rhMZ104-D (antibody, V domains shown)
VH: EVQLVESGGGLAKPGGSLRLSCAASGFTFSDYYMDWVRQAPGKGLEWVSRISNGGGSTWYADSVKGRFTISRENAKNTLYLQMNSLRAEDTAVYYCARERYCSGGVCYAGTKYFDYWGQGVLVTVSS
VL: QPVLTQPPSLSASPGASARLPCTLSSDLSVGSKNMYWYQQKPGSAPRLFLYYYSDSDKQLGPGVPNRVSGSKETSSNTAFLLISGLQPEDEADYYCQVYDSSANWVFGGGTRLTVLG
Regarding B15, the binding result in experiment [1] is “no binding”.

B16: rhMZ101-B (antibody, V domains shown)
VH: EVQLVESGGGLAKPGGSLRLSCAASGFSFSDYYMYWVRQAPGKGLEWVSGISYTGGSTYYADSVKGRFTISRENAKNTLYLQMDSLRAEDTAVYYCARVLYSGSYYYFDYWGQGVLVTVSS
VL: QSVLTQPPSLSASPGASARLPCTLSSDLSVGSKNMYWYQQKPGSAPRLFLYYYSDSDKQLGPGVPNRVSGSKETSSNTAFLVISGLQPEDEADYYCQVYDSSANIVFGSGTKLTVLG
As to B16, the binding result in experiment [1] is reported as “no binding”.

The record behind these values is US20210238262A1 (HENRY M JACKSON FOUNDATION FOR THE ADVANCEMENT OF MILITARY …, published 2021).
